Source: article PMC6779754

These sequences were tested against GST-Bsx (zebrafish) (UniProt Q6R3Q6) (assay: EMSA). Conditions: EMSA: DIG Gel Shift Kit (Roche) per manufacturer, 2.0 pmol GST-Bsx with 32 fmol DIG-oligonucleotide or 8 fmol DIG-147bp probe; buffer, pH and temperature not ….
Sequence of GST-Bsx (zebrafish) (Q6R3Q6 whole entry): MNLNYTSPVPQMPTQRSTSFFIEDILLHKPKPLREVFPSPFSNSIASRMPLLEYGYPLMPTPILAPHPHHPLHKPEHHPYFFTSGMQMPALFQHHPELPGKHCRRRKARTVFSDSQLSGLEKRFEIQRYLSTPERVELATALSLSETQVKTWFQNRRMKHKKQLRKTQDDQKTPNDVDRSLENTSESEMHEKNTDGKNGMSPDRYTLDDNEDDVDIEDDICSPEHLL

| Sequence | binding |
| --- | --- |
| GATGGAGAAGTGGACGATCGGCACACCTCCGCAGATGAAGCCCGGAGAGCCGGCGCTGCGCTCTTATGTGAACCCCATGAGTCCAGATTAGGCATCGTACAGGAGTGAGTGGCCAGATTGGGGTCAGACAGGGGGATAATCCAGAGA (double strand) [147bp P3 mutant] | binds more weakly |
| GATGGAGAAGTGGACGATCGGCACACCTCCGCAGATGAAGCCCGGAGAGCCGGCGCTGCGCTCTTATGTGAACCCCATGAGTCCATCGTAGGCAGATTACAGGAGTGAGTGGCCAGATTGGGGTCAGACAGGGGGATAATCCAGAGA (double strand) [147bp P4 mutant] | binds |
| TCTCTGGATTATCCCCCTGTCTGACCCCAATCTGGCCACTCACTCCTGTAATCTGCCTAATCTGGACTCATGGGGTTCACATAAGAGCGCAGCGCCGGCTCTCCGGGCTTCATCTGCGGAGGTGTGCCGATCGTCCACTTCTCCATC (double strand) [wt147bp] | binds |
